The results in this text go back to patent publication US20210008162A1 (OP T, published 2021).

Where no end group is shown, it is not given here.

For test [1], the target named is T1, mouse CD40 on cells (CD40+ T cells / Th40 cells and B cells of NOD mice; mouse CD4+CD40+ cells in culture) (mouse, UniProt P27512 20-289).
T1 construct: whole, on cells; The target is inferred from CD40+ cells; No purified CD40 was tested; also called CD40 protein
T1 sequence (looked up): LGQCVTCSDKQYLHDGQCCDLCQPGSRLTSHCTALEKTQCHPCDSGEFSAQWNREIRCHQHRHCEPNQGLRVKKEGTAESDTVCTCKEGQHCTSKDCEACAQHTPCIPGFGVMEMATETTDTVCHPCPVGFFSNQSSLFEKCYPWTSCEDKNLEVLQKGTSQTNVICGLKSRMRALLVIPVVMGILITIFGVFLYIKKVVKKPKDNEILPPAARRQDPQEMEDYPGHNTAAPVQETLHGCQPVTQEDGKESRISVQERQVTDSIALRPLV
The test is described as follows: KGYY-15 bound to live CD4+CD40+ cells kept in culture for 10 days, percent bound over days post treatment; the text says 'human or mouse' cells.

Test [2] concerns the target T2, human CD40 on CD4+CD40+ cells (human, UniProt P25942 21-277).
T2 construct: whole, on cells
Described as above.

T2 sequence (P25942 21-277): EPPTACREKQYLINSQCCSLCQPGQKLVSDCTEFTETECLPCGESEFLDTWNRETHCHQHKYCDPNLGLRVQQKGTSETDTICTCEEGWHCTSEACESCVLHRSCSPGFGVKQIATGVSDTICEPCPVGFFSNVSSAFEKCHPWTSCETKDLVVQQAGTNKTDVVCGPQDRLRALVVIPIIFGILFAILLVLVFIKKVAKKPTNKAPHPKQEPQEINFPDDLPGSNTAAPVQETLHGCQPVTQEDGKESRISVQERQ

Regarding VLQWAKKGYYTMKSN-NH2 (also called 15-mer-Form 1) [KGYY-15 (SEQ ID NO:11)], the binding result in test [1] and in test [2] was “binds” in each case.
